In patent publication US20040241164A1:

Experiments:
Soluble Aβ 1-40 = Soluble Aβ 1-40 (UniProt P05067); experiment: BIAcore 2000 SPR, antibody captured by anti-Ig, soluble Aβ in flow
Soluble Aβ 1-42 = Soluble Aβ 1-42 (UniProt P05067); experiment: as above

Kd (Soluble Aβ 1-40) | Kd (Soluble Aβ 1-42) | Substance
0.004 nM | 0.004 nM | Murine anti-Aβ antibody 266
23 nM | 24 nM | anti-Aβ murine antibody 4G8
 | 4.4 nM | anti-Aβ murine antibody 21F12
